Results on 41 sequences are retold here after the nanobody polyreactivity screen of Harvey et al. (2022).

The nature of this series: yeast display, Sf9 membrane polyspecificity reagent, FACS + sequencing; frameworks hold sequencing errors. The procedure, abridged: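 A synthetic nanobody library was expressed on Saccharomyces cerevisiae BJ5465 by galactose induction for 36–48 hours. The library was stained for 1 hour at 4 °C with 10% biotinylated, detergent-solubilized Sf9 membrane reagent and enriched with streptavidin microbeads before FACS. Low and high (top ~1%) gates were set on anti-HA fluorescence for expression and streptavidin fluorescence for reagent binding, and each polyreactivity label reflects the gate of origin.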
Take “QVQLVESGGGLVQAGGSLRLSCAASGSTFRYNAMGWYRQAPGKERELVATITGSGGSTYYADSVKGRFTISRDNAKNTVYLQMNSLKPEDTAVYYCAAAYRGRYSWYYFPRYAYWGQGTQVTVSS”: the “polyreactivity (PSR sort gate)” value is “high polyreactivity”. With “QVQLVESGGGLVQAGGSLRLSCAASGSTFRYNAMGWYRQAPWKERELVAAITSGGSTYYADSVKGRFTISRDNAKNTVYLQMNSLKPEDTAVYYCAALWQSRWYKMDYWGQGTQVTVSS”, the “polyreactivity (PSR sort gate)” value is given as “high polyreactivity”. As for “QVQLVESGGGLVQAGGSLRLSCAASGSTFRYNSMGWYRQAPGKDRELVAAISRIGGTTYADSVKGRFTISRDNAKNTVYLQMNSLNPEDTAVYYCARANWGYYGPEYGYWGQGTQVTVSS”, the “polyreactivity (PSR sort gate)” value is “high polyreactivity”. On to “QVQLVESGGGLVQAGGSLRLSCAASGSTFRYNTMGWDRQAPGKERELVAAISGGGGSTYYADSVKGRFTISRDNAKNTVYLQMNSLKPEDTAVYYCAKRHWYAGYVSSYTTRYDYWGQGTQVTVSS”, for which the “polyreactivity (PSR sort gate)” value is on record as “low polyreactivity”. As for “QVQLVESGGGLVQAGGSLRLSCAASGSTFRYNTMGWYRQAPGKERELVAAISSGGGTHFADSVKGRFTISRDNAKNTVYLQMNSLKPEDTAVYYCAAQSRYRYQFYSGLEYDYWGQGTQVTVSS”, the entry is “low polyreactivity”. With “QVQLVESGGGLVQAGGSLRLSCAASGSTFRYYAMGWYRQAPGKERELVAAISGTGSTYYADSVKGRFTISRDNAKNTVSLQMNSLKPEDTAVYYCGAYPRGSQRYNYWGQGTQVTVSS”, the “polyreactivity (PSR sort gate)” value is listed as “high polyreactivity”. On to “QVQLVESGGGLVQAGGSLRLSCAASGSTFRYYAMGWYRQAPGKERELVAAISSSGGRTYYADSVKGRFTISRDNAKNTVYLQMNSLKPEDTAVYYCAALYLRYHYGTDFDYWGQGTKVTVSS”, for which the “polyreactivity (PSR sort gate)” value was “high polyreactivity”.

Regarding “QVQLVESGGGLVQAGGSLRLSCAASGSTFRYYAMGWYRQAPGKERELVAAITYRGSSTYYADSVKGRFTISRDNAKNTVYLQMNSLKPEDTAVYYCARRYAGDYYYWGQGTQVTVSS”, the “polyreactivity (PSR sort gate)” value is “high polyreactivity”. As for “QVQLVESGGGLVQAGGSLRLSCAASGSTFRYYAMGWYRQAPGKERELVAAITYSGGRTYYADSVKGRFTISRDNAKNTVYLQMNSLKPEDTAVYYCAASFRAWSGNYWGQGTQVTVSA”, the entry is “high polyreactivity”; as for “QVQLVESGGGLVQAGGSLRLSCAASGSTFRYYAMGWYRQAPGKERELVARITSRAGRTYYADSVKGRFTLSRDNAKNTVYLQMNSLKPEDTAVYYCNTRDFSGYVHALSLYDYWGQGTQVTVSS”, “high polyreactivity”. Consider “QVQLVESGGGLVQAGGSLRLSCAASGSTFRYYAMGWYRQAPGKERELVASISTGGRTYYADSVKGRFTISRDNAKNTVYLQMNSLKPEDTAVYYCAAQGYWIYNTAYGYWGQGTQVTVSS”, for which the “polyreactivity (PSR sort gate)” value is recorded as “high polyreactivity”. As to “QVQLVESGGGLVQAGGSLRLSCAASGSTFRYYAMGWYRQAPGKERELVASITSTGSTNYADSVKGRFTISRDNAKNTVYLQMNSLKPEDTAVYYCAAYRPYFGIAYGYWGQGTQVTVSS”, the “polyreactivity (PSR sort gate)” value is listed as “high polyreactivity”. Consider “QVQLVESGGGLVQAGGSLRLSCAASGSTFRYYAMGWYRQAPGKERELVAVIRNSGGSTYYADSVKGRFTISRDNAKNTVYLQKNSLKREDTAVYYCAARLYTFHRDYWGQGTQVTVSS”, for which the “polyreactivity (PSR sort gate)” value is reported as “low polyreactivity”.

Consider “QVQLVESGGGLVQAGGSLRLSCAASGSTFRYYAMGWYRQAPGKERQLVAAISYRGGSTKYADSVKGRFTISRDNAKNTVYLQMNSLKPEDTAVYYCAADSYYDSKRYYWGQGTQVTVSS”, for which the “polyreactivity (PSR sort gate)” value was “high polyreactivity”. On to “QVQLVESGGGLVQAGGSLRLSCAASGSTFRYYAMGWYRQAPGKEWELVAVISTSGNTYYADSVKGRFTISRDNAKNTVYLQMNSLKPEDTAVYYCAARGVGGQISQEYDYWGQGTQVTVSS”, for which the “polyreactivity (PSR sort gate)” value is listed as “low polyreactivity”. Consider “QVQLVESGGGLVQAGGSLRLSCAASGSTFRYYSMGWYRQAPGKERELVAAITRSGTSTYYADSVKGRFTISRDTAKNTVYLQMNSLQPEDTAFYYCNAVTPYSREYDYWGQGTQVTVSS”, for which the “polyreactivity (PSR sort gate)” value is recorded as “high polyreactivity”. In the case of “QVQLVESGGGLVQAGGSLRLSCAASGSTFRYYTMGWYRQAPGKEREFVAAITSSGTSTYYADSVKGRFTISRDNAKNTVYLQMNSLKPEDTAVYYCNKVGIYGSRSRYDSWGQGTQVTVSS”, the “polyreactivity (PSR sort gate)” value is “high polyreactivity”. With “QVQLVESGGGLVQAGGSLRLSCAASGSTFRYYTMGWYRQAPGKERELVARISRSGGSTYYADSVKGRFTISRDNAKNTVYLQMNSLKPEDTAVYYCAALYYVKPGQRYDYWGQGTQVTVSS”, the “polyreactivity (PSR sort gate)” value is given as “high polyreactivity”. With “QVQLVESGGGLVQAGGSLRLSCAASGSTFRYYTMGWYRQAPGKERELVARISWSGGSTYYAYSVKGRFTISRDNAKYTVYLQMNSLKPEDTAVYYCNAVLFYFQTRDYWGQGTQVTVSS”, the “polyreactivity (PSR sort gate)” value is listed as “high polyreactivity”. Consider “QVQLVESGGGLVQAGGSLRLSCAASGSTFSANDMGWDRQAPGKEREFVAAITTSDDSTYYADSVKGRYTISRDNAKNTVYLQMNSLKPEDTAVYYCNAYSGYSFFGLCFFYKYDYWGQGTQVTVSS”, for which the “polyreactivity (PSR sort gate)” value is reported as “low polyreactivity”. Take “QVQLVESGGGLVQAGGSLRLSCAASGSTFSDNAMGGYRQAAGKERELVAAISWTGGSTYADSVKGRFTISRDNAKNTVYLQMNRLKPEDTAVYYCAAGGDFDGNYWGQGTQVTVSS”: the “polyreactivity (PSR sort gate)” value is “low polyreactivity”. Take “QVQLVESGGGLVQAGGSLRLSCAASGSTFSDNAMGWYRQAPGKERELVAAINETGGSTYYADSVKGRFTISRDNAKNTVYLQMNSLKPEDTAVYYCNADIDPYGATYAIEYDYWGQGTQVTVSS”: the “polyreactivity (PSR sort gate)” value was “low polyreactivity”. Regarding “QVQLVESGGGLVQAGGSLRLSCAASGSTFSDYAMGWYRPEPGQERELVATITSTGDTNYADSVKGRFTISRDNAKNTVYLQMNSLKPEDTAVYYCAAQHKKYGKRGLWNNFGYWGQGTQVSVSS”, the “polyreactivity (PSR sort gate)” value was “low polyreactivity”. As for “QVQLVESGGGLVQAGGSLRLSCAASGSTFSEYAMGWYRQAPGKEREFVATITVRGGSTYYADSVKGRFTISRDNAKNTVYLQMNSLKPEDTAVYYCAADGSGYYDWYYYWGQGTQVTVSS”, the entry is “low polyreactivity”. Turning to “QVQLVESGGGLVQAGGSLRLSCAASGSTFSFYAMGWYRQAPGKERELVAAIRFSGTSTYADSVKGRFTISRDNAKNTVYLQMNSLKPEDTAVYYCAARRAVFYSQRYYRYDYWGQGTQVTVSS”, the “polyreactivity (PSR sort gate)” value is recorded as “high polyreactivity”. As to “QVQLVESGGGLVQAGGSLRLSCAASGSTFSGNAMGWYRQAPGKERELVAAISWSGDTTYYADSVKGRFTISRDNAKNTVYLQMNSLKPEDTAVYYCAVRYYWRRMNYWGQGTQVTVSS”, the “polyreactivity (PSR sort gate)” value is listed as “high polyreactivity”. On to “QVQLVESGGGLVQAGGSLRLSCAASGSTFSGNAMGWYRQAPGKERELVAAITSSGGSTYYADSVKGRFTISRDNAKNTVYLQMNSLKPEDTAVYYCAAKSRRTRRSYYWGQGTQVTVSS”, for which the “polyreactivity (PSR sort gate)” value is “high polyreactivity”.

On to “QVQLVESGGGLVQAGGSLRLSCAASGSTFSGYAKGWYRQAPGTEWELVAAINWNGGRTYYADSVKGRFTISRDNAKNTVYLQMNSLKPEDTAVYYCNAVTRAAYWWTARSTDYDYWGQGTQVTVSS”, for which the “polyreactivity (PSR sort gate)” value is given as “high polyreactivity”. As for “QVQLVESGGGLVQAGGSLRLSCAASGSTFSGYAMGWYRQAPGKERELVAAITSDGSTYYADSVKGRFTISRDNAKNTVYLQMNSLKPEDTAVYYCAVGIPYRGRQGYYGYYTYDYWGQGTQVTVSS”, the entry is “high polyreactivity”; as for “QVQLVESGGGLVQAGGSLRLSCAASGSTFSGYAMGWYRQAPGKERELVATISGGGSTYYADSVKGRFTISRDNAKNTVYLQMNSLKPEDTAVFYCNAQGYGIFTSSLDYWGQGTQVTVSS”, “low polyreactivity”; as for “QVQLVESGGGLVQAGGSLRLSCAASGSTFSHNAMGWYRQAPGKERELVAAISSDGTTYYADSVKGRFTISRDNAKNTVYLQMNSLKPEDTAVYYCNKTRWTQRTSFDYWGQGTQVTVSS”, “low polyreactivity”. Turning to “QVQLVESGGGLVQAGGSLRLSCAASGSTFSHYAMGWYRQAPGKERELVATITGTGVRTYYADSVKGRFTISRDNAKNTVYLQMNSLKPEDTAVYYCAVPPSKRGAQAQPWMDYWGQGTQVTVSS”, the “polyreactivity (PSR sort gate)” value is listed as “low polyreactivity”. With “QVQLVESGGGLVQAGGSLRLSCAASGSTFSINAMGWYRQAPGKERELVAAITWRGVRTYYADSVKGRFTISRDNAKNTVYLQMNSLKPEDPAVYYCAAVPATSYPRRYVYAYYYWGQGTQVTVSS”, the “polyreactivity (PSR sort gate)” value was “high polyreactivity”.

As to “QVQLVESGGGLVQAGGSLRLSCAASGSTFSIYAMGWYRKAPGKERELVAAISTDGGSTNYADSVKGRFTISRDNAKNTVYLQMNILKPEDTAVYYCAADTYWYLSPYDYWGQGTQVTVSS”, the “polyreactivity (PSR sort gate)” value is “low polyreactivity”. In the case of “QVQLVESGGGLVQAGGSLRLSCAASGSTFSIYTMGWYRQAPGKERELVAAINTGDGDTYYADSVKGRFTISRDNAKNTFYLQMNSLKPEDTAVYYCAAVYSQLSNLYYYWGQGTQVTVSS”, the “polyreactivity (PSR sort gate)” value is on record as “low polyreactivity”. Turning to “QVQLVESGGGLVQAGGSLRLSCAASGSTFSLYALGWYRQAPGKERELVAAITRGGNTYYADSVKGRFTISRDNAKNTVYLQMNSLKPEDTAVYYCNAVFPKTRSYAYGYWGQGTQVTVSS”, the “polyreactivity (PSR sort gate)” value is “high polyreactivity”.

With “QVQLVESGGGLVQAGGSLRLSCAASGSTFSLYAMGWYRQAPGKERELVAAISWSDGSTYYADSVKGRFTISRDNAKNTVYLQMNSLKPEDTAVYYCAAESTVRPYEHSGDYWGQGTQVTVSS”, the “polyreactivity (PSR sort gate)” value is “low polyreactivity”.

Turning to “QVQLVESGGGLVQAGGSLRLSCAASGSTFSLYAMGWYRQAPGKERELVARISYTDGSTYYADSVKGRFTISRDNAKNTVYLQMNSLKPEDTAVYYCAAEAWYSYTLEDYWGQGTQVTVSS”, the “polyreactivity (PSR sort gate)” value is listed as “low polyreactivity”. For “QVQLVESGGGLVQAGGSLRLSCAASGSTFSLYVMGWYRQAPGKEREFVATINWRTVSTYYADSVKGRFTISRDNAKKTVYLQMNSLIPEDTAVYYCNAVSYPPDGTYDYWGQGTQVTVSS”, the “polyreactivity (PSR sort gate)” value is given as “low polyreactivity”. Take “QVQLVESGGGLVQAGGSLRLSCAASGSTFSNYAMGWYRQAPGKERELVASISNGGSTNYADSVKGRFTISRDNAKNTVYLQMNSLKPEDTAVYYCNAESKAKYDYWGQGTQVTVSS”: the “polyreactivity (PSR sort gate)” value is given as “low polyreactivity”. Regarding “QVQLVESGGGLVQAGGSLRLSCAASGSTFSPYAMGWYRQAPGKERELVAAINYSSGSTYYADSVKGRFTISRDNAKNTVYFQMNSLKTEDTAVYYCAKGWYAGYPYDYWGQGTQVTVSS”, the “polyreactivity (PSR sort gate)” value was “low polyreactivity”.
